Assay results reported in patent US20070148773.

How the values were obtained:
Experiment in all cases: cell_activity
[1] = target: T1, Int (wild-type lambda integrase) (Bacteriophage lambda) (UniProt P03700); details: attP x attP intermolecular, HeLa 48 h; attP x attB 0.81%
T1 sequence: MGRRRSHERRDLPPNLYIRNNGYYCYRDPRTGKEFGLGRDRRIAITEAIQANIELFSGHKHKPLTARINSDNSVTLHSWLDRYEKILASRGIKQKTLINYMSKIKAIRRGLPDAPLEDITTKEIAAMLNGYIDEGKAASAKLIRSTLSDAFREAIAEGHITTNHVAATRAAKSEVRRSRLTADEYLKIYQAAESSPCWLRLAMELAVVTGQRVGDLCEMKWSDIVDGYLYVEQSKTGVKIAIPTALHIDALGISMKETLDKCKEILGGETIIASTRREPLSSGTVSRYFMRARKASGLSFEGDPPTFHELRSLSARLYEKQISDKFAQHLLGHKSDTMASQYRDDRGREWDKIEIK

[2] = target: Int-h/218 (double mutant lambda integrase) (Bacteriophage lambda) (UniProt P03700); details: HeLa 48 h
[3] = target: Int-h (mutant lambda integrase) (Bacteriophage lambda) (UniProt P03700); details: HeLa 48 h

Sequence	activity [1] [% GFP+ cells]	activity ([2]; attP x attP intermolecular, attP x attB 16.45%) [% GFP+ cells]	activity ([3]; attP x attP intermolecular, attP x attB 9.90%) [% GFP+ cells]	activity ([2]; attB x attB intermolecular) [% GFP+ cells]	activity ([3]; attB x attB intermolecular) [% GFP+ cells]
TCTGTTACAGGTCACTAATACCATCTAAGTAGTTGATTCATAGTGACTGCATATGTTGTGTTTTACAGTATTATGTAGTCTGTTTTTTATGCAAAATCTAATTTAATATATTGATATTTATATCATTTTACGTTTCTCGTTCAGCTTTTTTATACTAAGTTGGCATTATAAAAAAGCATTGCTTATCAATTTGTTGCAACGAACAGGTCACTATCAGTCAAAATAAAATCATTATTTGATTTC (double strand) [attP]	1.24	17.6	8.07		
CTGCTTTTTTATACTAACTTG (double strand) [attB]				4.01	1.15
